T1: full length human B7H3 expressed on CHOK1 cells (human, UniProt Q5ZPR3 29-534)
T1 construct: whole, on cells; also called B7H3/CHOK1; B7H3/CHOK1 full length; not shown: C-terminal flag and Myc tags from the pCMV6-Entry vector
T1 sequence (looked up): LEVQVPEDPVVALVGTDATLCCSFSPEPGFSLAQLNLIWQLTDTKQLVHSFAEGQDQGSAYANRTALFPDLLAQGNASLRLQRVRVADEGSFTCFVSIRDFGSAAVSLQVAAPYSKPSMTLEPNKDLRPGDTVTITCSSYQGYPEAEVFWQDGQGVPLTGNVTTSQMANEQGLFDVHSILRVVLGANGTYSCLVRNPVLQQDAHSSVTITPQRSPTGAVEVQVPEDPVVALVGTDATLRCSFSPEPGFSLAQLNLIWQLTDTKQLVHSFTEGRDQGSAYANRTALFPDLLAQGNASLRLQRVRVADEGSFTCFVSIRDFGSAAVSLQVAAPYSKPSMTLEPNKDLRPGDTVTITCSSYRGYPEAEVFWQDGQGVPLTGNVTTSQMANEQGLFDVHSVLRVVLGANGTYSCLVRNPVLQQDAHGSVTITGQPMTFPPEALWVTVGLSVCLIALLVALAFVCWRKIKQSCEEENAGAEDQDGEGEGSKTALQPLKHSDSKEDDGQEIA

T2: human B7H3-Fc recombinant protein (human, UniProt Q5ZPR3 29-466, limits assumed)
T2 construct: Recombinant Fc fusion; also called human B7H3-Fc (full length); B7H3 recombinant protein; not shown: Fc part
T2 sequence (looked up): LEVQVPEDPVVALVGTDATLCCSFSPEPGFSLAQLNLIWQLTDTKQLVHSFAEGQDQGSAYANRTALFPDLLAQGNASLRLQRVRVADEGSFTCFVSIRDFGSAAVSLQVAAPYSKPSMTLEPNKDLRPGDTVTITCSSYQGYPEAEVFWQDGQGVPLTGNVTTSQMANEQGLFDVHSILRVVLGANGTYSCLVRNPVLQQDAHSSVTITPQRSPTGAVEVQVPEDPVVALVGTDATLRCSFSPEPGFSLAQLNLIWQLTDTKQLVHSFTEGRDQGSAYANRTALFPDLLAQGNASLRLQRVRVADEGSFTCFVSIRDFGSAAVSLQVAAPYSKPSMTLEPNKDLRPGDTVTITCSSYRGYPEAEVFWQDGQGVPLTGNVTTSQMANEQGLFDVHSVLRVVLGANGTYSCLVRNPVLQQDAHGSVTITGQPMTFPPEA


Tests used:
[1] = target: T1, full length human B7H3 expressed on …; experiment: FACS, VH titrated with or without 20 nM Enoblituzumab as competitor
[2] = target: T2, human B7H3-Fc recombinant protein; experiment: ELISA, human B7H3-Fc coated at 2 ug/mL, anti-Flag HRP detection; footnote of Table 5: NA: low binding to B7H3 protein

Row | binding result [1] | binding result [2] | Binder
1 | binds |  | BH-01 anti-B7H3 VH antibody (VHH, Human heavy chain-only (VH) antibody made in E. coli with a C-terminal flag and 6xHis tag; also called BH-1; not shown: C-terminal flag and 6xHis tag) VHH: QVTLKESGPTVVNPTQTLTLTCTFSGFSLTTSPVGVGWLRQPPGQALEWLALIYWDDDKRYSPSLKSRLTITKNTSRNQVVLTMMNMDPVDTATYYCAHRVYYTGNWDGGSFDYWGQGTLVTVSS
2 | binds | binds | BH-03 anti-B7H3 VH antibody (VHH, Human heavy chain-only (VH) antibody made in E. coli with a C-terminal flag and 6xHis tag; not shown: C-terminal flag and 6xHis tag) VH: QVQLVESGGGVVQPGRSPRLSCAASGFTFSSYAMHWVRQAPGKGLEWVAVISYDGSNKYYADSVKGRFTISRDNSKNTLYLQMNSLRAEDTAVYYCARDLARLVAGLDYWGQGTLVTVSS

Source: patent EP4705353A2 (dated 2026)
